Measurements from the RNAGym collection of RNA variant scans (doi:10.1073/pnas.2313332121).

B1: TPR t1 (parent)
chain: GACCAAUCUGCCCUCAGAGCUCGAGAACAUCUUCGGAUGCAGAGGAGGCAGGCUUCGGUGGCGCGAUAGCGCCAACGUCCUCAACCUCCAAUGCAUCCCACCACAUGAUGAUGCCUGAAGAGCCUUGGUUUUUUG

Variants of: B1
Assay: polymerase ribozyme fitness, log enrichment relative to wild type (log ratio); higher = more active; in vitro selection for triplet polymerase activity
Summary of the method: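 Input and output libraries were sequenced on Illumina after a single in vitro selection round, run in triplicate on PCR-built, transcribed mutant libraries of each subunit of a heterodimeric triplet polymerase ribozyme. Selection annealed libraries to a biotinylated primer, the partner subunit and triplets, incubated them frozen at −7 °C, then gel-excised extended constructs for streptavidin-bead capture and RT-PCR. Genotypes with ≥10 input reads and ≥1 read per output were kept. Fitness is the logarithm, taken in base 2, of genotype enrichment divided by wild-type enrichment, using inverse-variance-weighted replicate averages.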

Row | Variant | polymerase ribozyme fitness (log ratio)
1 | A46U A95G C115U G128A | -4.98
2 | A46U G120A G135A | -0.18
3 | G47A C72A C82G C88A | -2.25
4 | A46U G71A C82G U87G | -1.78
5 | G47A C88U C102U | -3.29
6 | G47A C76G C114G | -3.13
7 | G47A C56U U112A | 0.663
8 | A46U A74U | -0.906
9 | G47C G113C G127C | -3.94
10 | G47C C79U G93U | -3.38
11 | G47C G61C | -3.43
12 | A46G U106A | 0.118
13 | G47C C72U A90G C123U | -1.64
14 | G47C G93U | -3.69
15 | A46U G63U U96G | -2.43
16 | G47C C70U G120C | -0.515
17 | A46U C101U A121U | 0.775
18 | G47A G61U G120U G127A | -0.871
19 | G47A C70U G77U G93A | -3.29
20 | A46U U55A A121G | 0.98
21 | A46U C62A A68G G110A | -5.73
22 | A46U C49U U92A U106A | -7.34
23 | A46C U55A G63C | -0.439
24 | G47C C70A U131G | -4.27

Row | Variant | polymerase ribozyme fitness (log ratio)
25 | G47A U96A C98G | -6.21
26 | A46U G52U C104U G110A | -3.02
27 | G47A C72U A83U | -1.18
28 | A46U U131G | -1.62
29 | G47A G61C U81C C86A U129C | -4.11
30 | A46G G69C G113A | -3.12
31 | A46U U81C C101G | -4.31
32 | A46U U112A C123A | -1.26
33 | G47C C114U | -3.1
34 | G47A A50G | -1.37
35 | A46G G60U C94U | -1.81
36 | A46G C76U C94G G120C | -1.42
37 | G47A C56U U78A C124A U131A | 1.41
38 | G47C G93A C124A G127U G135U | -2.23
39 | G47A C73A | -0.495
40 | G47C C70A | -5.04
41 | A46U G60A | -1.55
42 | G47C G52C A68U U109A | -7.13
43 | G47A G77U | -0.132
44 | A46U G63U A83U G110U | -6.56
45 | A46U G48C G128U | -3.83
46 | A46U C85U | -2.5
47 | A46G C72A | 0.745
48 | A46G C80U C94U | -1.95

Row | Variant | polymerase ribozyme fitness (log ratio)
49 | A46C G128C | -3.42
50 | A46U U54G G69U U78C G117U | -4.42
51 | G47A G120A | -0.422
52 | G47C C102U | -2.99
53 | G47C G113A | -2.47
54 | A46U U87G G93A C98U | -1.2
55 | A46U C53A C73A | -0.67
56 | A46U U59C U109A | -5.97
57 | A46U G47A C49U G61C C72U C85G | -2.44
58 | A46U C82U G93U G110U | -3.55
59 | G47A C53G C85A C89A A91C C94A U116C G120C | -5.21
60 | A46U C82G U87G | -1.06
61 | A46U G71A C72G A119G | -1.69
62 | G47A U131C | -1.16
63 | A46C U87C C89G U92C | -2.75
64 | G47A C82U C86G | -0.151
65 | A46C G120A U126A | -0.908
66 | G47C C56G | -1.79
67 | G47A A50U C73U C124U U132A | -0.0565
68 | G47C G77U A100U | -1.79
69 | G47A C82G | -1.3
70 | A46G C88U | -0.84
71 | A46U G47A C72U A121G U130C | 0.526
72 | A46G G71A C80A U129C | -5.8

Row | Variant | polymerase ribozyme fitness (log ratio)
73 | G47A C49A G60C G93A G113C G127U | -6.14
74 | A46G A66G | -1.48
75 | A46U C79U | -2.22
76 | A46G G69C | -2.16
77 | A46U C94G | -2.36
78 | G47A C49U G63C | -1.35
79 | A46U G47A | -2.18
80 | A46G U55C C70U A100U G127A | -2.53
81 | A46U G113A | -1.78
82 | A46G C49A C56A A66C | -2.64
83 | A46U U59C C101U A121U | 0.445
84 | G47C C72U C85A C99G G110A | -7.27
85 | A46G C104A G113A | -2.84
86 | G47C G61U U130A | -2.36
87 | G47C C49G U55G C73G C97A A119G | -5.16
88 | A46G C53A G127C | -1.2
89 | A46G C70U | -0.0806
90 | A46G A68U C114G | -5.84
91 | G47C C86G C124A | 1
92 | A46U A84C C104A G128U | -4.76
93 | A46U C73U C82U G93U G110U | -3.63
94 | A46C U81A G93U | -2.96
95 | A46C U87G A100U | -0.0504
96 | A46G C49U C86A G93A | -2.56

Row | Variant | polymerase ribozyme fitness (log ratio)
97 | G47C G61U C114U | -3.31
98 | G47A G69A | -3.08
99 | A46U C62U C94G U131G | -4.7
100 | G47C G48U | -2.71
101 | A46C G93U | -1.86
102 | A46G A74G U92C | -0.91
103 | A46U C98G | -6.78
104 | A46C U112A | 0.587
105 | G47C G110C | -6.05
106 | G47C G110U | -2.81
107 | G47C G110A | -3.26
108 | A46G G107A | -4.88
109 | A46U A66G C123A | -2.03
110 | A46G G69U U78A C94U C115A G127C | -2.24
111 | G47A U55G C85U | -1.22
112 | A46U C123A | -0.661
113 | A46U C123U | 0.165
114 | A46G G69A G110A | -4.77
115 | G47C G60C U109A U112G | -7.01
116 | G47A C101U | -1.23
117 | G47A C101A | -1.93
118 | A46G G61U | -0.252
119 | G47A G69C C73U U106A | -2.08
120 | G47C G69A | -4.38

Row | Variant | polymerase ribozyme fitness (log ratio)
121 | A46G G60A | 0.0971
122 | G47A G113U C114A A121G | -1.76
123 | G47A A111U | -4.17
124 | A46C G117A | -2.35
125 | G47A U125A | -1.31
126 | G47C A90G | -1.06
127 | A46U C72G A83G G117A U133G | -3.93
128 | A46G C62U G117U | -3.06
129 | A46G A50U C88A C89A C124A U133A | -0.0922
130 | A46U G110C | -4.29
131 | A46U G110U | -2.33
132 | A46U G65A | -4.9
133 | A46U G65C | -7.92
134 | A46U C73G U133G | -1.42
135 | G47A G48U | -1.13
136 | G47A G48A | -1.62
137 | G47A C123G | 0.634
138 | G47A U54C U59A | -0.546
139 | A46G A74U G77A G113U | -3.68
140 | G47C G69U A90C C104U | -1.9
141 | G47A C73G U125A G128A | -3.1
142 | G47A U96A | -1.93
143 | A46G U87C | 0.254
144 | G47A G63A C85G | -3.45

Row | Variant | polymerase ribozyme fitness (log ratio)
145 | A46G G71U | -1.19
146 | A46C U78A | -0.208
147 | A46U A74G C101A | -3.42
148 | G47A C62A | -1.78
149 | G47A C62U | -1.85
150 | A46U C64U C114U | -2.92
151 | A46U U54G C82A G110U | -3.02
152 | A46U C62U A91U A103G U106A C114U | -5.16
153 | G47A C56U C73U C101U A119G G120U G127A | -1.08
154 | G47A U112G G117A | -3.86
155 | G47A A50U U81A | -0.591
156 | A46U C49G C70U A84C | -2.21
157 | G47A C70A C82G | -2.41
158 | A46U C80A | -4.71
159 | G47C C85G | -2.21
160 | A46G C82U U106A | -0.902
161 | A46U C79U A105G | -3.11
162 | A46U C56G U78G C85U | -1.84
163 | G47C C49A A111U | -5.94
164 | A46U A74U U87G G93A C98U | -2.38
165 | G47A U92C G127A | -5.01
166 | G47C C62U | -1.21
167 | G47A G60C G71U A119U | -6.29
